In article PMC9867282:

Each substance was assayed against cytosolic carboxypeptidase 6 (CCP6), endogenous (human (endogenous in HEK 293T)) (UniProt Q5VU57) (assay: proximity ligation; Duolink PLA in HEK 293T cells fixed with 4% paraformaldehyde; primary antibodies against the two proteins; confocal microscopy; three independent experiments, at least 75 cells in total).
Chain of UniProt Q5VU57 (Q5VU57 whole entry): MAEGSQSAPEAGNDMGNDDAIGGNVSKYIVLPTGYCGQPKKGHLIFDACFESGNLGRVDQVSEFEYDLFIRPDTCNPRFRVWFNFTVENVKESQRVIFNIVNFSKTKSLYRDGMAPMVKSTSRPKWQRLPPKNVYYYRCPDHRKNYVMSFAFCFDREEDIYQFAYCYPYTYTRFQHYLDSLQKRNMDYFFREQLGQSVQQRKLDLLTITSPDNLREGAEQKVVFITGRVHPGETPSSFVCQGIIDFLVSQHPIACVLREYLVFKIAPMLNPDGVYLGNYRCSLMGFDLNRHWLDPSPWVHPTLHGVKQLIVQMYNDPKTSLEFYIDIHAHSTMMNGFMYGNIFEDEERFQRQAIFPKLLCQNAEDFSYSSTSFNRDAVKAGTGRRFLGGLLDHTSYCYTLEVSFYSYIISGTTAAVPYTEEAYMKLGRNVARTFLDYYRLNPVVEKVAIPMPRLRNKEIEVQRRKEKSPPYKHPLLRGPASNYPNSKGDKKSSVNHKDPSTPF
Work on “NudC (from UniProt Q9Y266 1-331) (natural protein)” yielded a percent of cells with a positive PLA signal of 52%.
For “Pericentriolar material 1 protein PCM1 (from UniProt Q15154 1-2024) (natural protein)”, the percent of cells with a positive PLA signal was 73%.
With “Progesterone-induced-blocking factor 1 PIBF1 (from UniProt Q8WXW3 1-757) (natural protein)” the percent of cells with a positive PLA signal was 37%.
